Test: yeast display, Sf9 membrane polyspecificity reagent, FACS + sequencing; frameworks hold sequencing errors
In short: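 Using colony PCR, genes from sorted yeast display clones were amplified, then sequenced on MiSeq at 2 × 250 and filtered by CDR length. The clones had been stained with 10% biotinylated, detergent-solubilized Sf9 membrane reagent for 1 hour at 4 °C and sorted by FACS into low and high (top ~1%) gates on anti-HA and streptavidin fluorescence. Polyreactivity labels come from the gate of origin.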

Row | Sequence | polyreactivity (PSR sort gate)
1 | QVQLVESCGGIVQAGGSLRLSCAASGSTFRVNAMGWYRHSPGKERELVAAIRKSGGSTYADSVKGRFTISRDNAKNTFNLQMNSLKPEDTGVYYCNADATAWLGLADNYWVQGTQVTVSS | low polyreactivity
2 | QVQLVESCGGLVEAGGSLRLSCAASGSILYSNAMGWYRQGPGKESELVAAIRSGGSTSYADSVKGRFTISRDNANNTVYLQMNSLKPDDTAVYYSAADPSSGVTYGMYYWGQGSQVTVSS | low polyreactivity
3 | QVQLVESCGGLVHAGGSLRLSCAASGITLKWNDMGLYRQAPGKEREFVAAITGSTGSTFYADSVKGRFTISRDNAKNTVYLQMNSLKPEDTAVYYCAAGPWFYYWGQGTQVTVSS | low polyreactivity
4 | QVQLVESCGGLVQAGGILRLSCAASGSTFRYYVMGWYRQAPGKERELVAAITSGGSKYYADSVKGRFTISRDNEQNTVYLQMNSLKPDDTAVYYCNKVYSRTFDYWGQGTQVTVSS | high polyreactivity
5 | QVQLVESCGGLVQAGGILRLSCADYGSIFYYNAMGWYRQAPGKERQLVAAITRSGSTNYAESVKLRFTISRDNAKNTVYLQMNSLKPEDTAVYYCAAPWRGSVFRYYSWGQGTQVTVSS | low polyreactivity
6 | QVQLVESCGGLVQAGGRLRLSCAASGRNFQQYAMGWSRQAPGKERELVAAISRGGSTYYADSVKGRFTISRDNAKNTVYLQMNRLKPEDTAVYYCAARWWRRFSGSHSLYDYWGQGTQVTVSS | high polyreactivity
7 | QVQLVESCGGLVQAGGSHRLSCAASGSTFAYNDMGWYRQAPGKERELVADIRSGGNTNYADSVKGRFTISRDNAKNTVYLQMNSLKPEDTAVYYRATDGYRIDVYHPDYRYDYWGQGTQVTVSS | low polyreactivity
8 | QVQLVESCGGLVQAGGSLRLICAASGSIFFRNAKGWYRQAPGKERELVAAIRYTGTSTYYADSVKGRFTISRDNAKNTVYVQMNSLKPEDTAVYYCAKPWGSVRRREMDYWGQGTQVTVSS | low polyreactivity
9 | QVQLVESCGGLVQAGGSLRLSCAASGFICNGYTMGWSRQAPWKERELVAAISGSGGRTYYADSVKGRFTISRDNAKKTVYLQMNSLKPEDTAVYYCAASNWHSRGSGEYYWGQGTQVTVSS | high polyreactivity
10 | QVQLVESCGGLVQAGGSLRLSCAASGFIFYYYAMGWYRQAPGKERELVAGITRGGSTYYADSVKGRFTISRDNAKNTVYLQMNSLKPEDTAVYYCASTYYLSYTSGTFGKFGYWGQGTQVTVSS | high polyreactivity
11 | QVQLVESCGGLVQAGGSLRLSCAASGIIFRYYAMGWYRQAPGKEREFVASINFSGSSTYYADSVKGRFTISRDNAKNSVYLQMKSLKPEDTAVYYCAAGRRWLYDYWGQGTQVTVSS | high polyreactivity
12 | QVQLVESCGGLVQAGGSLRLSCAASGITYVYYAMGWYRQAPGKERELVAGITSGTSTYYADSVKGRFTISRDNAKNTVYLQINSLKPEDTAVYYCATGYRRGSTYGYWGQGTQVTVSS | low polyreactivity
13 | QVQLVESCGGLVQAGGSLRLSCAASGRTFPAYAMGWSRQAPGKERELVAAISSSGSRTYYADSVKGRFTISRDNAKNTVYLQMNSLKQEDTAVYYCAARGGRRQKVNRDDYWGQGTQVTVSS | high polyreactivity
14 | QVQLVESCGGLVQAGGSLRLSCAASGRTFYKNTMGWYRQAPGKERELVATISQRGGSTYYADSVKGRFTISRDNAKNTVFLQMHSLKPEDTAVYYCNARHYYIWWRSPTRTAMNYWGQGTQVTVSS | high polyreactivity
15 | QVQLVESCGGLVQAGGSLRLSCAASGSTFRFNTMGWYRQPPGKERELVAAITRGGSTNYADSVKGRFTISRDNAKNTVYLQMNSLKPEDTAVYFCAAGYCWTFDYDYWGQGTQVTVSS | low polyreactivity
16 | QVQLVESCGGLVQAGGSLRLSCAASGSTFRTYAMGWYRQAPGKERELVASIDSTGSTNYADSVKGRFTISSDNAKNSVYLQMNSLKPEDTAVYDCAAETYSYPPFYAYDYWGQGTQVTVSS | low polyreactivity
17 | QVQLVESCGGLVQAGGSLRLSCAASGSTFSYNAMGWYRQAPGKEREMVAAITYGGGSTYYADSVKGRFTISRDNAKNTVYLQMNSLKPEDTAVYYCAVEKYGRYRPYSYGYWGQGTQVTVSS | high polyreactivity
18 | QVQLVESCGGLVQAGGSLRLSCAASGSTFVVNAMGGYRQAPGKERELVADISFTGDSTFYADSVKGRFTISRDNAKNTVYLEMNSLKPDDTAVYYCAADFRRVFSKYSYYLYFDFDYWGQGTQVTVSS | low polyreactivity
19 | QVQLVESCGGLVQAGGSLRLSCAASGSTFYRNAMGWYRQAPGKEREFVAAISFRGGGTYADSVKGRFTISRDNAKNTVYLQMNSLKPEDTAVYYCAADHLSYRRRYEYWGQGTQVTVSS | low polyreactivity
20 | QVQLVESCGGLVQAGGSLRLSCAASGSTYAMGWYRQAPGKERELVASITSRGGSTYYADSVKGRFTISRDNAKNTVYLQMNSLKPEDTAVYYCNRVYRYPYNYWGQGTQVTVSS | high polyreactivity
21 | QVQLVESCGGLVQAGGSLRLSCAASGYIFLYNTMGWYRQAPWKERELVAAISFRAGSTYYADSVKGRFTISRDNAMNTVYLQMNSLKPEDTAVYYCAKRQRYYLYGHDYWGQGTQVTVSS | low polyreactivity
22 | QVQLVESCGGLVQAGGSLRLSCAASGYIFVNYAMGWYRQAPGKQRELVARITGSGGSTDYADSVKGRFTISRDNAKNTVYLQMNSLKPEDTAVYYCNTKYVRYLRYYTYKYWGHGTQVTVSS | low polyreactivity
23 | QVQLVESCGGLVQAGGSLRLSCAASGYTFGSNAMGWYRQAPGKERELVAAISTNGGRTNYADSVKGRFTISRDNAKNTVYLQMNSLKPEDTAVYYCNTRLRVRYYLSGFDYWGQGTQVTVSS | high polyreactivity
24 | QVQLVESCGGLVQAGGSLRLSCAATGLTISRNVMGWYRQAPGKEREWVAAISRSGSTYYADSVKGRFTISRDNAKNTVYLQMNSLKPEDTAVYYCAKERYYTGRYSGHDYCGQGTQVTVSS | high polyreactivity
25 | QVQLVESCGGLVQAGGSLRLSCADSGRTFGSYAMGWYRQATRKDRELVASISRSGGTTYYADSVKGRFTLSRDNAKNTVYLQMYSQKPEDTAVYYCAAQYVRYGLYYWGQGTQVTVSS | high polyreactivity
26 | QVQLVESCGGLVQEGGSLRLSSAASGSIRYYALGWYRQAPGKESELVAAISSRGTNTYYADSVKGSITISRDNAKNTVYLQMKSQKPEDTAVYYCNAVVGLGYNYWGQGTQVSVSS | high polyreactivity
27 | QVQLVESCGGLVQPGGSLRLSCAASGSTFTRYGFGWYRQATGKEREMVAAITTSGSSTYYADSVKGRFTISRDNAKYTVYLQMNSLKPEETAVYYGAADWSSWGFDYWGQGTQVTVSS | low polyreactivity
28 | QVQLVESCGVLVQAGGSLRLSCDASGSIFVWNAMGWYREAPGKERELVAAIRSDDDSTYYADSVKGLFTISRDNAKNTVYLQMNCLNPEDTAVINALVDSPTFSHVKPWDGGDYWGQGTQVTVSS | low polyreactivity
29 | QVQLVESDGGIVQAGGSLRLTCAASGIIFGYYVMGWYRQEPGKEGELVASITSGGSTNYADSVKGRFTISRDNAKNTVYLQMNSLKPEDTAVYYCAAEERTDTIACWRYPHDYWGQGTQVTVSS | low polyreactivity
30 | QVQLVESDGGLVQAGGSLRLSCAASGSTFRYNAMGWYRQAPGKERELVAAISWGGGTPFYADSVKGRFTISRDNAKNTVYLQMNSLTPEDTAVYYCAASYRDYPWGRYYYWGQGTQVTVSS | low polyreactivity

Reference: the nanobody polyreactivity screen of Harvey et al. (2022)
